# Measured values from publication PMC12245028.
# Target: p65 (RELA, Transcription factor p65) (UniProt Q04206)
# Test: anti-HA co-IP, p65 blot
# Conditions: reference: HA-WEE1 wild type; sites S642
substance,measurement,value
HA-WEE1 (from UniProt P30291) HA-WEE1 S642A,binding against the reference,lost
